In the DeepSol protein solubility set:

Experiment: soluble on expression in E. coli; label from the status in PepcDB or PDB records
For “PELPEVETSRRGIEPHLVGATILHAVVRNGRLRWPVSEEIYRLSDQPVLSVQRRAKYLLLELPEGWIIIHLGMSGSLRILPEELPPEKHDHVDLVMSNGKVLRYTDPRRFGAWLWTKELEGHNVLTHLGPEPLSDDFNGEYLHQKCAKKKTAIKPWLMDNKLVVGVGNIYASESLFAAGIHPDRLASSLSLAECELLARVIKAVLLRSIEQGGTTLKDFLQSDGKPGYFAQELQVYGRKGEPCRVCGTPIVATKHAQRATFYCRQCQK”, the “soluble on expression in E. coli” value was “soluble”. For “MGSDKIHHHHHHMKIGDKVRFLSEVGGGIVTGFKGKDFVLVEDADGFDIPMPIRECVVIEADDYNIKRKPAATAPKQEEPAKPAKPEMPVIQRQPEVRGGDTLNVFLAYVPEDAKAMMTTPFEAYLVNDSNYYLYYTYLSAEGKAWNNRSHGLVEPNTKLLLEEFTKDVLNEMERVAVQLIAFKDGKPAAIKPAVSVELRIDTVKFYKLHTFSASDFFEEPALIYDIVKDDVPAKQVYVSAEEIQSALLQKKFVDKPKSQPIMKPNHGQSGKNGIIEVDLHIDSLLDDTHGMSNSEILNYQLDKFREVIEANKEKREQKVVFIHGKGDGVLRKAIIDELKRKHSNYRYQDASFQEYGFGATMVTIK”, the “soluble on expression in E. coli” value was “not soluble”. In the case of “MSLTRDAASITPARVRAHVFRYPVSTPVKTSFGTMHDRPAVLVEVEDSDGAVGWGEVWCNFPACGAEHRARLVETVLAPLLTARAFADPAQAFAHLEARTAVLAIQTGEPGPLAQAIAGLDIALCDLAARRAGQPLWAWLGGSGDRIGVYASGINPENPEDVVARKAAEGYRAFKLKVGFDDARDVRNALHVRELLGAATPLMADANQGWDLPRARQMAQRLGPAQLDWLEEPLRADRPAAEWAELAQAAPMPLAGGENIAGVAAFETALAARSLRVMQPDLAKWGGFSGCLPVARAVVAAGLRYCPHYLGAGIGLQASAHLLAAVPGLASPGLLEVDANDNPLRSLLSPALATLHEGRITLGGAPGLGVTPDLAALRAACAAREGHHHHHH”, the “soluble on expression in E. coli” value is reported as “soluble”. With “MGSDKIHHHHHHMIAVLDMGTNSFILLVVSEKGETILEEVHEVGIASGNLEKAKEVFKECVEKAEKMGAELHIFGTAFFRKHPDIFQQITGGRGEILPEEKEAYYSYISVAKDFGKKDILVADLGGGSLELAWKDGYVSLELGTHVLNRTFSLTLPYIEPVDGIVEYVMKRLPEVKKDELFGVGGSFVALAALMKGKWDLEILHGSVLKLEEVEKLVDKIKRMSFEDVKNLKVLPEGREKTILAGGIVTIALLRKYSPRMTVSTRGYRYGIVWEILEKRWRARGDSNPQPPDPQSGALSN” the “soluble on expression in E. coli” value was “not soluble”. For “MYLLRINIEGTINYGLYKYLYPALKAAEGKKSIAGLILVFNSGGGDAASSQLIHDLVKKIRKKKPVYSLALGICASGAYWIASASTKIYAIDTSLIGSIGVISIRPNVKKLMEKIGVDVMVYKSGKYKDMTSPFSEPNEEEKSVYQRLLDDIFEKFKRSVAEDRGIPSEKIDEIANGMVYSAKMAADNGLIDRIANYDDLVSDLTKEVGKRLKVKEFYIRKPLLQRLLGILEHHHHHH”, the “soluble on expression in E. coli” value was “not soluble”. In the case of “MRAMYDLLKQKADVWDLFTRKKEYQPSKLDEHGRFFFTEEDLKNASSPEVSRYLVENGLKVEFPENKTFAVCLTHDMDDIYPPFSHSLLSSVSCLKSLDFRGLTAPFLWRFKGPEYSPYLNFSDIMDLEEGFGAKSSFYFLASREDPVRFRYDIEDLENLLGDISDRGWEAGLHGGYYSYDNLEALNNEKKSLEKVLGKKVLGFRNHYLRFKTPETWELLADAGFGYDSTFGYSELAGFRNGMCHPFKPYNLNKEREINILEIPLTVMDVALFKASSSFEEAWRCTKDLIDTAAGLNGVITLLWHNFVFGCSFRKDWIKLYEKALQYCSEKGAWITSGEEIYRWWENGAMAGDPLEHHHHHH”, the “soluble on expression in E. coli” value is reported as “soluble”. For “MSLDKKAVFADVAEKDASFINENYYISPSLDTLSSYSLLQLRKVPHLVVGHKSYGKIEFLEPVDLAGIPLTSLGGVIITFEPKTCIIYANLPNRPKRGEGINVRARITCFNCYPVDKSTRKPIKDPNHQLVKRHIERLKKNPNSKFESYDADSGTYVFIVNHAAEQTEGHHHHHH”, the “soluble on expression in E. coli” value was “soluble”. For “MNKFSLFFALTATLMTITESAVPTASISAHVLDISGGSPAGGVQILAYIQQNDDWTKIGSEFTQDNGRVDWVSPDFTLIPGTYRLVYITEPYYKAKNVESFYPYVEVVFNIRDATQHYHVPLTLSPWGYSTYRGS”, the “soluble on expression in E. coli” value was “not soluble”.
